Here are results for three molecules from publication PMC12646051.

Assay [1] deals with mouse Slo1 (mSlo1) α-subunit (mouse) (UniProt Q08460).
Assay [2] addresses β3-Gρ (full-length human BK β3a subunit with C-terminal eGFP-ρ1D4) (human). In words: pull-down + SEC; plasmid weight ratio 1:0.2:1.8 (TR2).
The target in assay [3] is hSlo1EM-TS (modified human Slo1 BK α subunit with a C-terminal twin-strep tag) (human) (UniProt Q12791). As to the kind of experiment: pull-down + SEC; as a1 but plasmid weight ratio 1:0.2:1.8 (TR2).
Chain of hSlo1EM-TS (modified human Slo1 BK α subunit with a C-terminal twin-strep tag) (human) (Q12791 whole entry): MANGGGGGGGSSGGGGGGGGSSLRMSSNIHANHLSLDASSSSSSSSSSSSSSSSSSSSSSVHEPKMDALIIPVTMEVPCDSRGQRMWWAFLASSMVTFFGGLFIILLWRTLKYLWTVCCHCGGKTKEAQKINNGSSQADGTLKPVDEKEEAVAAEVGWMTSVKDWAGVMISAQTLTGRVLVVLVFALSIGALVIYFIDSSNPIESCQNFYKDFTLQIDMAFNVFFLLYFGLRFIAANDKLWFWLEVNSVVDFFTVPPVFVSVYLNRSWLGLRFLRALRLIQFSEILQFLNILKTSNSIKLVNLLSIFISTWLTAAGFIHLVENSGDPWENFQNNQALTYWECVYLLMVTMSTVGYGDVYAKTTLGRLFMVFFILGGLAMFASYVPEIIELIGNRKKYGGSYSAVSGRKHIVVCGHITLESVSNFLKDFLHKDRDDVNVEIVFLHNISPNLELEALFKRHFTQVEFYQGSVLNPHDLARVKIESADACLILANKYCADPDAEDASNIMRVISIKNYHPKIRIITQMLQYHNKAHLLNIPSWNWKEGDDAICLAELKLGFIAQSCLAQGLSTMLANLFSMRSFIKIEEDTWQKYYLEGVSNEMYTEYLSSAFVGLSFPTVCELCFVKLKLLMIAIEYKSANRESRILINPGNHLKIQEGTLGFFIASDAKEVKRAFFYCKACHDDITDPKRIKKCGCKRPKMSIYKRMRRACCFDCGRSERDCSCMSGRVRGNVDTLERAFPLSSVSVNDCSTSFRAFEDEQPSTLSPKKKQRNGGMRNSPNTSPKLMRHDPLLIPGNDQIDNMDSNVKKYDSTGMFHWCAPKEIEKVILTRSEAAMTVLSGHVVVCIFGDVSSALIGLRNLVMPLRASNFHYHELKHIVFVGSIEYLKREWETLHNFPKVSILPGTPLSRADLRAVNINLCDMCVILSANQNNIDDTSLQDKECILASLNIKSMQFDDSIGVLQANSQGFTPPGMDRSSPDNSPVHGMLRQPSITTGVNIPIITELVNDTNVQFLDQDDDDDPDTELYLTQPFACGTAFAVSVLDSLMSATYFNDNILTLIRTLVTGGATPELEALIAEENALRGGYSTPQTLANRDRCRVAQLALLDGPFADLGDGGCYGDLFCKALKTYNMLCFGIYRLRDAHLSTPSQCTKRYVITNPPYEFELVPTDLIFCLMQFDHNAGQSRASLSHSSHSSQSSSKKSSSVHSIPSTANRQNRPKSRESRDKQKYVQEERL
Assay [4] shares this target. In words: pull-down + SEC; HEK293F co-transfected with hSlo1EM-TS, β2-RF and β3-Gρ at plasmid weight ratio 1:1:1 (TR1); digitonin extract; Slo1 held on streptactin XT resin, eluted with 50 mM biotin; eluate read by dual-colour FSEC (Superose 6 Increase; eGFP and mCherry).
For assay [5] the target is unchanged. In words: pull-down + SEC; TR1 (1:1:1); three-step affinity purification: streptactin XT (Slo1), then anti-FLAG M2 resin (β2) and anti-ρ1D4 resin (β3) one after the other, in either order; eluates, input and flow-through read by dual-colour FSEC.
Assay [6] has as its target β3-Gρ (full-length human BK β3a subunit with C-terminal eGFP-ρ1D4) (human). The assay is described as above.
Assay [7] has as its target hSlo1EM-TS (modified human Slo1 BK α subunit with a C-terminal twin-strep tag) (human) (UniProt Q12791). In words: pull-down + SEC; as a3 but plasmid weight ratio 1:0.2:1.8 (TR2).
The target in assay [8] is T1, human β2 (hβ2) (human) (UniProt Q9Y691).
T1 sequence: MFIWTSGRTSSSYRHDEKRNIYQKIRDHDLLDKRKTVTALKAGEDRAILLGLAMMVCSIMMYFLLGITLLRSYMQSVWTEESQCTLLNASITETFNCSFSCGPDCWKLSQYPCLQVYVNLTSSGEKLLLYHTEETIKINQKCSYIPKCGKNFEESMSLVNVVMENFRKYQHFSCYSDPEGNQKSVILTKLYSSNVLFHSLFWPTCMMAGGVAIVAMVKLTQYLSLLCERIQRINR

Assay [9] deals with T1, human β2 (hβ2) (human). This is another data set of the same source.

Chain of mouse Slo1 (mSlo1) α-subunit (mouse) (Q08460 whole entry): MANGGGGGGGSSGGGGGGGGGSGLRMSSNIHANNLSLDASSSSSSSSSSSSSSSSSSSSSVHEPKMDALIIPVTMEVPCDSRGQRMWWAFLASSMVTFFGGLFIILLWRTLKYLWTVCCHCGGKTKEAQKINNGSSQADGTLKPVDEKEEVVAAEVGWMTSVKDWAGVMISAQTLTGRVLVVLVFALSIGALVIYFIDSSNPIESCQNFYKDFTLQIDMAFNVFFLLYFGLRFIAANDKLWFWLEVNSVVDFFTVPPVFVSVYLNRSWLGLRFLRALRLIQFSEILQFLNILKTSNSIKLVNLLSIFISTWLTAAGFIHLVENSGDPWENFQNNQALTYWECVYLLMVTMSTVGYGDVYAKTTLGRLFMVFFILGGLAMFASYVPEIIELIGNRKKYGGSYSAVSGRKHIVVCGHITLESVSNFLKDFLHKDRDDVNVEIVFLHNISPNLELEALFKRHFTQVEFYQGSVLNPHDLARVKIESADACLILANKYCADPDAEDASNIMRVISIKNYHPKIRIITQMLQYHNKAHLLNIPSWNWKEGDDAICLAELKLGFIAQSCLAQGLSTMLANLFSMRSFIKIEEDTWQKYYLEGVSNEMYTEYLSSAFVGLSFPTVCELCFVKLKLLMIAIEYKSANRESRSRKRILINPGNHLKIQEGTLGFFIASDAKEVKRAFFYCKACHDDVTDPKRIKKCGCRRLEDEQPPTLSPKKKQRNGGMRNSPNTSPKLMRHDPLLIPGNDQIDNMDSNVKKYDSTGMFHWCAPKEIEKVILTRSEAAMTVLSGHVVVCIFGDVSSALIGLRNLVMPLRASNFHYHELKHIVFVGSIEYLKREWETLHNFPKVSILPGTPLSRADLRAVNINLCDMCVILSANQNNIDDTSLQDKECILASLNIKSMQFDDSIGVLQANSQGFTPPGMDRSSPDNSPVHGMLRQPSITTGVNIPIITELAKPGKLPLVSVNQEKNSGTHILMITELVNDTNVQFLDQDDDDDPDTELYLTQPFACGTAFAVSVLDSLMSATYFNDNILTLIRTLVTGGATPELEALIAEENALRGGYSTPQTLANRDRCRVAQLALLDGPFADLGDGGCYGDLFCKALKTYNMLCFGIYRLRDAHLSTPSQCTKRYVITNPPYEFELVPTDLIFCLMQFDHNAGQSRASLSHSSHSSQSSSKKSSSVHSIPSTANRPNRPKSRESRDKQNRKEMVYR

B1: human β2 (hβ2) (natural protein)
chain: MFIWTSGRTSSSYRHDEKRNIYQKIRDHDLLDKRKTVTALKAGEDRAILLGLAMMVCSIMMYFLLGITLLRSYMQSVWTEESQCTLLNASITETFNCSFSCGPDCWKLSQYPCLQVYVNLTSSGEKLLLYHTEETIKINQKCSYIPKCGKNFEESMSLVNVVMENFRKYQHFSCYSDPEGNQKSVILTKLYSSNVLFHSLFWPTCMMAGGVAIVAMVKLTQYLSLLCERIQRINR
With B1, the time course of trypsin removal of inactivation of α+β2 currents in excised oocyte patches, described by I(t)=(1-exp(-t/τ))^4; β subunits per channel (β subunits per channel) in assay [1] was 4.

B2: β2-RF (full-length human BK β2 subunit with C-terminal mCherry-FLAG) (natural protein)
chain: MFIWTSGRTSSSYRHDEKRNIYQKIRDHDLLDKRKTVTALKAGEDRAILLGLAMMVCSIMMYFLLGITLLRSYMQSVWTEESQCTLLNASITETFNCSFSCGPDCWKLSQYPCLQVYVNLTSSGEKLLLYHTEETIKINQKCSYIPKCGKNFEESMSLVNVVMENFRKYQHFSCYSDPEGNQKSVILTKLYSSNVLFHSLFWPTCMMAGGVAIVAMVKLTQYLSLLCERIQRINR
For the molecule B2, the percent of Slo1–β3 complexes that are ternary (hold β2 too) is 37% in assay [2] and 49% in assay [6]. The molar ratio of β2-RF to β3-Gρ affiliated with Slo1 in assay [3] worked out at 1.08 mol/mol; in assay [4], 7.32 mol/mol. Further, the stoichiometry N (β2 per 4 Slo1) in assay [5] is 2.8; in assay [7] it was 1.9.

B3: mouse β3a (mβ3a) (natural protein)
chain: MQPFSIPVQITLQGGRRRQGRTALPASGKINGDPLKVHPKLPSSAGEDRAMLLGVAMMASSVLMFFLLGTTVLKPFMLRSPREESNCTTVHTHIVDDGLDFSFTCEGSCQDHGRSPCLQVFVNLSHSGQKVLLHYDDEAIRTNPKCFYTPKCHGDRDDLLNSVLDIKEFFDHNNGTFPCFYSPDGPLGVVLRKSGHKVVFHCLFWPLLTLLGGALIVGLVRLTQHLSFQCEQYSTVVRA
Take B3: the global fit of the trypsin digestion time courses of BK currents (mSlo1 with β2:β3a injection ratios 1:4 to 1:24, β2 alone, β3a alone): random mixing model against segregated model (fold lower sum of squares) with human β2 (hβ2) (human) [8] turned out to be 2.5. In the assay with human β2 (hβ2) (human) [9], the single-channel recordings from oocytes with BK α and 1:8 β2:β3a: of 16 patches with β3a-type tail openings, those that also show β2-like recovery from inactivation without reopening (of 16 patches) came out at 14. In [1], the time course of trypsin removal of inactivation of α+β3a currents in excised oocyte patches, described by I(t)=(1-exp(-t/τ))^4; β subunits per channel (β subunits per channel) was 4.
